In the data set the target is T1, h-PUS10 (recombinant PUS10 from total HEK293T extract) (human, UniProt Q3MIT2 1-529).
T1 sequence: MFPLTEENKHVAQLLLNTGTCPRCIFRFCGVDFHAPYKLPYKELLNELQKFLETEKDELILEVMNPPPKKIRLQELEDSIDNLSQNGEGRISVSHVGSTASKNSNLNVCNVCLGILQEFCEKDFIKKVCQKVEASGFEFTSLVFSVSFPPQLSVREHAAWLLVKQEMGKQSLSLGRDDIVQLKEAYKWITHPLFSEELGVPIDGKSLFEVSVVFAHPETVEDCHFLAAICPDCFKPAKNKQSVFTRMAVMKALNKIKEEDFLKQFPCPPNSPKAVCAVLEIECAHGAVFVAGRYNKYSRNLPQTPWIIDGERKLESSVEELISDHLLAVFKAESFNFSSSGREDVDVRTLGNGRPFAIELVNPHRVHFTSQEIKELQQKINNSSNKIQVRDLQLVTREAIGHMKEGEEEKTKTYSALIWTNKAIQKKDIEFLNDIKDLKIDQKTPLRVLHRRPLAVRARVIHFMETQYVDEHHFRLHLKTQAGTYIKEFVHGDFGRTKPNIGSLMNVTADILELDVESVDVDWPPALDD
Nature of the data set: EMSA.

B1: mutated tRNAAU-Ala (U59A, G60A; GAAA at 57-60) (structured_RNA)
RNA: GGGGAAUUAGCUCAAAUGGUAGAGCGCUCGCUUAGCAUGCGAGAGGUAGCGGGAUCGAAACCCGCAUUCUCCA
modifications: unmodified transcript
As to B1, the binding result is recorded as “binds”.
